Amyloid nucleation score data for 72 variants are collected here from the supplement of paper PMC12067230.

± gives the uncertainty stated by the source.

Sequences and labels used below:
B1: R-9-C; numbered along this chain (parent)
chain: EASNCFAIRHFENKFAVETLICFNLFLNSQEKHY

The variants in the data set derive from B1. Description: amyloid nucleation score relative to WT ADan (yeast Sup35 reporter selection) (log enrichment difference); higher = more amyloid nucleation. The protocol: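 Deep mutational scan of the ADan peptide fused to the Sup35 nucleation domain (SupN) in S. cerevisiae [psi-pin-], covering all single amino-acid substitutions and stop truncations (truncations = sequence up to the stop). After 24 h Cu2+ induction, cells were selected on -ADE-URA plates for 7 d at 30 °C. The nucleation score is log enrichment (output/input, deep sequencing) minus that of WT ADan, as the error-weighted mean of 3 biological replicates (DiMSum).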
Regarding EASNCFAICHFENKFAVETLICFNLFLNSQEKHY [R9C], the amyloid nucleation score was determined as 0.0357 ± 0.14.

Consider EASNCFAIGHFENKFAVETLICFNLFLNSQEKHY [R9G], for which the amyloid nucleation score was determined as 0.614 ± 0.11. With EASNCFAIYHFENKFAVETLICFNLFLNSQEKHY [R9Y], the amyloid nucleation score was 0.0138 ± 0.19.

EASNCFAIFHFENKFAVETLICFNLFLNSQEKHY [R9F]: the amyloid nucleation score is -0.221 ± 0.19.

Turning to EASNCFAIRHHENKFAVETLICFNLFLNSQEKHY [F11H], the amyloid nucleation score is -0.0333 ± 0.17. For EASNCFAIRHKENKFAVETLICFNLFLNSQEKHY [F11K] the value was 0.435 ± 0.17. For EASNCFAIRHPENKFAVETLICFNLFLNSQEKHY [F11P] the value was 0.683 ± 0.19; for EASNCFAIRHQENKFAVETLICFNLFLNSQEKHY [F11Q], 0.646 ± 0.18; for EASNCFAIRHLENKFAVETLICFNLFLNSQEKHY [F11L], 0.0755 ± 0.086.

For EASNCFAIRHSENKFAVETLICFNLFLNSQEKHY [F11S], the amyloid nucleation score was -0.135 ± 0.099. For EASNCFAIRHEENKFAVETLICFNLFLNSQEKHY [F11E], the amyloid nucleation score was determined as 0.0736 ± 0.14. For EASNCFAIRHNENKFAVETLICFNLFLNSQEKHY [F11N] the value was -0.169 ± 0.18. For EASNCFAIRHMENKFAVETLICFNLFLNSQEKHY [F11M] the value was 0.968 ± 0.15; for EASNCFAIRHDENKFAVETLICFNLFLNSQEKHY [F11D], -0.0408 ± 0.15.

Take EASNCFAIRHWENKFAVETLICFNLFLNSQEKHY [F11W]: the amyloid nucleation score was -0.14 ± 0.13. For EASNCFAIRHGENKFAVETLICFNLFLNSQEKHY [F11G] the value was 0.144 ± 0.091; for EASNCFAIRHYENKFAVETLICFNLFLNSQEKHY [F11Y], 0.379 ± 0.14. The value for EASNCFAIRHAENKFAVETLICFNLFLNSQEKHY [F11A] was 0.14 ± 0.13; that for EASNCFAIRHVENKFAVETLICFNLFLNSQEKHY [F11V] was 0.671 ± 0.087; that for EASNCFAIRHIENKFAVETLICFNLFLNSQEKHY [F11I] was 0.216 ± 0.14.

For EASNCFAIRHTENKFAVETLICFNLFLNSQEKHY [F11T], the amyloid nucleation score came to 0.236 ± 0.13. The value for EASNCFAIRHCENKFAVETLICFNLFLNSQEKHY [F11C] was 0.247 ± 0.15; that for EASNCFAIRHRENKFAVETLICFNLFLNSQEKHY [F11R] was 0.366 ± 0.095; that for EASNCFASRHFENKFAVETLICFNLFLNSQEKHY [I8S] was 0.471 ± 0.09. For EASNCFAQRHFENKFAVETLICFNLFLNSQEKHY [I8Q] the value was 0.519 ± 0.23. The value for EASNCFARRHFENKFAVETLICFNLFLNSQEKHY [I8R] was 0.781 ± 0.11.

EASNCFAPRHFENKFAVETLICFNLFLNSQEKHY [I8P]: the amyloid nucleation score is 0.188 ± 0.15. For EASNCFAWRHFENKFAVETLICFNLFLNSQEKHY [I8W] the value was 0.464 ± 0.14; for EASNCFAYRHFENKFAVETLICFNLFLNSQEKHY [I8Y], 0.183 ± 0.14. The value for EASNCFATRHFENKFAVETLICFNLFLNSQEKHY [I8T] was 0.634 ± 0.14. As for EASNCFAVRHFENKFAVETLICFNLFLNSQEKHY [I8V], the amyloid nucleation score is 0.0841 ± 0.1. The value for EASNCFAIRHFENKFDVETLICFNLFLNSQEKHY [A16D] was 0.736 ± 0.15; that for EASNCFAIRHFENKFEVETLICFNLFLNSQEKHY [A16E] was 1.02 ± 0.13; that for EASNCFAIRHFENKFCVETLICFNLFLNSQEKHY [A16C] was 0.159 ± 0.14.

EASNCFAIRHFEWKFAVETLICFNLFLNSQEKHY [N13W]: the amyloid nucleation score was -0.378 ± 0.12. The value for EASNCFAIRHFEEKFAVETLICFNLFLNSQEKHY [N13E] was -0.506 ± 0.14; that for EASNCFAIRHFECKFAVETLICFNLFLNSQEKHY [N13C] was -0.187 ± 0.12.

On to EASNCFAIRHFEDKFAVETLICFNLFLNSQEKHY [N13D], for which the amyloid nucleation score stood at 0.0178 ± 0.13.

Turning to EASNCFAIRHFEQKFAVETLICFNLFLNSQEKHY [N13Q], the amyloid nucleation score was 0.539 ± 0.16. For EASNCFAIRHFETKFAVETLICFNLFLNSQEKHY [N13T], the amyloid nucleation score is -0.39 ± 0.11.

EASNCFAIRHFEMKFAVETLICFNLFLNSQEKHY [N13M]: the amyloid nucleation score was -0.696 ± 0.13. In the case of EASNCFAIRHFEKKFAVETLICFNLFLNSQEKHY [N13K], the amyloid nucleation score is -0.309 ± 0.14.

Turning to EASNCFAIRHFEAKFAVETLICFNLFLNSQEKHY [N13A], the amyloid nucleation score was -0.453 ± 0.12. The value for EASNCFAIRHFEVKFAVETLICFNLFLNSQEKHY [N13V] was 0.195 ± 0.09. For EASNCFAIRHFEYKFAVETLICFNLFLNSQEKHY [N13Y] the value was -1.67 ± 0.15. The value for EASNCFAIRHFELKFAVETLICFNLFLNSQEKHY [N13L] was -0.652 ± 0.086. Consider EASNCFAIRHFEFKFAVETLICFNLFLNSQEKHY [N13F], for which the amyloid nucleation score is -0.221 ± 0.11.

Consider EASNCFAIRHFESKFAVETLICFNLFLNSQEKHY [N13S], for which the amyloid nucleation score was -0.991 ± 0.09. For the variant EASNCFAIRHFEHKFAVETLICFNLFLNSQEKHY [N13H], the amyloid nucleation score is -1.45 ± 0.23.

For the variant EASNCFAIRHFEGKFAVETLICFNLFLNSQEKHY [N13G], the amyloid nucleation score came out at 1.19 ± 0.082. The value for EASNCFAIRHFEPKFAVETLICFNLFLNSQEKHY [N13P] was -0.534 ± 0.15; that for EASNCFAIRHFEIKFAVETLICFNLFLNSQEKHY [N13I] was -0.0116 ± 0.13; that for EASNCFAIRHFERKFAVETLICFNLFLNSQEKHY [N13R] was -1.97 ± 0.1. For EASNCFAIRHFENFFAVETLICFNLFLNSQEKHY [K14F] the value was 0.137 ± 0.11. For EASNCFAIRHFENTFAVETLICFNLFLNSQEKHY [K14T] the value was 0.665 ± 0.1; for EASNCFAIRHFENQFAVETLICFNLFLNSQEKHY [K14Q], 0.601 ± 0.13. On to EASNCFAIRHFENIFAVETLICFNLFLNSQEKHY [K14I], for which the amyloid nucleation score was 0.391 ± 0.12. Take EASNCFAIRHFENGFAVETLICFNLFLNSQEKHY [K14G]: the amyloid nucleation score was -0.903 ± 0.091. Regarding EASNCFAIRHFENYFAVETLICFNLFLNSQEKHY [K14Y], the amyloid nucleation score was determined as 0.185 ± 0.11. In the case of EASNCFAIRHFENLFAVETLICFNLFLNSQEKHY [K14L], the amyloid nucleation score is 0.488 ± 0.073. The value for EASNCFAIRHFENAFAVETLICFNLFLNSQEKHY [K14A] was 0.253 ± 0.096; that for EASNCFAIRHFENSFAVETLICFNLFLNSQEKHY [K14S] was 0.341 ± 0.075; that for EASNCFAIRHFENHFAVETLICFNLFLNSQEKHY [K14H] was 1.04 ± 0.14. For EASNCFAIRHFENRFAVETLICFNLFLNSQEKHY [K14R] the value was -0.195 ± 0.084. Regarding EASNCFAIRHFENVFAVETLICFNLFLNSQEKHY [K14V], the amyloid nucleation score is 0.207 ± 0.08. The value for EASNCFAIRHFENMFAVETLICFNLFLNSQEKHY [K14M] was 0.629 ± 0.11. The value for EASNCFAIRHFENNFAVETLICFNLFLNSQEKHY [K14N] was 0.701 ± 0.12. On to EASNCFAIRHFENPFAVETLICFNLFLNSQEKHY [K14P], for which the amyloid nucleation score turned out to be 0.000567 ± 0.15. For EASNCFAIRHFENCFAVETLICFNLFLNSQEKHY [K14C] the value was 0.65 ± 0.11; for EASNCFAIRHFENEFAVETLICFNLFLNSQEKHY [K14E], 0.00624 ± 0.12; for EASNCFAIRHFENDFAVETLICFNLFLNSQEKHY [K14D], 0.152 ± 0.13.

For EASNCFAIRHFENWFAVETLICFNLFLNSQEKHY [K14W], the amyloid nucleation score was found to be 0.0928 ± 0.12.
